Measurements from patent US20050142568.
Numbering of substitutions follows the chain as printed.

What was measured:
His6CPS-6, Q95NM6 = target: T1, His6CPS-6, Q95NM6
T1 chain: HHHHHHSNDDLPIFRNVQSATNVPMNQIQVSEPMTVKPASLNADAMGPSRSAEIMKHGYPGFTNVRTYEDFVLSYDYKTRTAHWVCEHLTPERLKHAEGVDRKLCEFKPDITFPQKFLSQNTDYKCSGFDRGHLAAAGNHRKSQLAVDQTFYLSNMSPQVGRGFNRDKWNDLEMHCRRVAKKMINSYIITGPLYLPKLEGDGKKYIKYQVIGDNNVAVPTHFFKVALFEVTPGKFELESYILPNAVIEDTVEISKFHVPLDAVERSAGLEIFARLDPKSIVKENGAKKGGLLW

[1] = target: T2, ^35S-Methionine labeled CRN-1, Q9N3T2
T2 chain: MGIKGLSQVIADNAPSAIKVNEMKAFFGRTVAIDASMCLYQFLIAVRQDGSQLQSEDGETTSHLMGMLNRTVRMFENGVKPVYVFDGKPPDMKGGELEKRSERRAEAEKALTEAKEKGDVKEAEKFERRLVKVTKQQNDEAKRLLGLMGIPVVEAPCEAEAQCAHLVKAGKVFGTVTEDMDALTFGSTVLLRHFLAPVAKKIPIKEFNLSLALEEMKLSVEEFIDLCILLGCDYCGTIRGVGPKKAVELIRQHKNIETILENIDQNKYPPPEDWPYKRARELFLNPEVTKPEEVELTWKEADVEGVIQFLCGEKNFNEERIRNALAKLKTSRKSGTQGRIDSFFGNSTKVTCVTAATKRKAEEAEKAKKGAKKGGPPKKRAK

B1: CRN-1(DY-AA) (protein)
chain: T2 chain with D233A, Y234A
**Q.** B1 was tested. Which “CPS-6 nuclease activity (plasmid cleavage assay)” value (His6CPS-6, Q95NM6) did it give?
**A.** continuing enhancement of CPS-6 nuclease activity, though less potently than the wild type CRN-1 protein

B2: full-length ^35S-methionine labeled CPS-6 (protein)
chain: MIGKVAGTAAIAGISFLAGKYSNDDLPIFRNVQSATNVPMNQIQVSEPMTVKPASLNADAMGPSRSAEIMKHGYPGFTNVRTYEDFVLSYDYKTRTAHWVCEHLTPERLKHAEGVDRKLCEFKPDITFPQKFLSQNTDYKCSGFDRGHLAAAGNHRKSQLAVDQTFYLSNMSPQVGRGFNRDKWNDLEMHCRRVAKKMINSYIITGPLYLPKLEGDGKKYIKYQVIGDNNVAVPTHFFKVALFEVTPGKFELESYILPNAVIEDTVEISKFHVPLDAVERSAGLEIFARLDPKSIVKENGAKKGGLLW
**Q.** Which “gap-dependent endonuclease activity of CRN-1” value [1] does the source give for B2 here?
**A.** it enhanced the gap-dependent endonuclease activity of CRN-1 by more than 200%

B3: CRN-1-His6 (protein)
chain: MGIKGLSQVIADNAPSAIKVNEMKAFFGRTVAIDASMCLYQFLIAVRQDGSQLQSEDGETTSHLMGMLNRTVRMFENGVKPVYVFDGKPPDMKGGELEKRSERRAEAEKALTEAKEKGDVKEAEKFERRLVKVTKQQNDEAKRLLGLMGIPVVEAPCEAEAQCAHLVKAGKVFGTVTEDMDALTFGSTVLLRHFLAPVAKKIPIKEFNLSLALEEMKLSVEEFIDLCILLGCDYCGTIRGVGPKKAVELIRQHKNIETILENIDQNKYPPPEDWPYKRARELFLNPEVTKPEEVELTWKEADVEGVIQFLCGEKNFNEERIRNALAKLKTSRKSGTQGRIDSFFGNSTKVTCVTAATKRKAEEAEKAKKGAKKGGPPKKRAKHHHHHH
**Q.** For B3, which “nuclease activity (plasmid cleavage assay)” value (His6CPS-6, Q95NM6) is on record?
**A.** complete plasmid degradation and approximately 500% increase in nuclease activity
